Reference: patent US9587002B2, “Sequence of nucleotides and peptides GSE 24.2 of dyskerin, which can induce telomerase activity, method for obtaining same, therapeutic compositions and applications thereof” (CONSEJO SUPERIOR DE INVESTIGACIONES CIENTIFICAS, priority 2005, dated 2017)

Experiments:
293T cells = assay: Cell viability of 293T cell lines treated with Inhibitor of Telomerase I (crystal violet); format: cell-based, human; conditions: 24.2 vs pLNCX 293T cells, inhibitor 0-20 μM, 72 hours
Experimental: FIG. 6.—Cell viability and telomerase activity of the 293T cell lines: pLNCX and 24.2 treated with the Inhibitor of telomerase I. A) Cell viability. After seeding the 293T cells: pLNCX and 24.2 in 24-well plates, they were incubated with concentrations between 0-20 μM of the Inhibitor of Telomerase I. The cell viability was measured by means of the crystal violet technique after 72 hours of exposure to the drug. The data represent the mean of two experiments performed in quadruplicate. B) Telomerase activity at different doses of the Inhibitor of Telomerase I. Telomerase activity of the 293T cells: 24.2 and pLNCX in the presence of different concentrations of the inhibitor of telomerase I (5-7 μM) for 3 days. The cells were seeded in 60-mm plates and subsequently treated at the specified concentrations and times.
The effect of GSE 24.2 in response to the inhibitor of telomerase I was studied. To this end, a viability curve was performed wherein the pLNCX and 24.2 cell lines were treated with increasing concentrations of the inhibitor of telomerase I (0-20 μM) for 72 hours. […]
Growth curves. […] The number of cells was determined by estimating the absorbance at 595 nm. […]

hTERT = assay: RT-PCR expression of hTERT in 293T cell lines after cisplatin; format: cell-based, human; conditions: pre-treated 0.5 μg/ml, treated 3 μg/ml cisplatin for 3 and 7 days
Experimental: FIG. 7.—Expression levels of different genes related to telomerase in 293T cells: pLNCX and 24.2 following treatment with cisplatin. The cells were seeded in 60-mm plates, treated with 3 μg/ml of cDDP following pre-treatment with 0.5 μg/ml of cisplatin for 3 days and, subsequently, collected at the times specified in the figure (3 and 7 days). Following the extraction of RNA, RT-PCR was performed with oligos specific for hTERT, hTR and dyskerin in order to study the expression levels of the messenger RNAs. As a starting RNA control, oligos for the amplification of GAPDH were used.
One of the explanations for the lower sensitivity of pLNCX 24.2 cells to cisplatin could be a change in the levels of some of the components of the telomerase complex. Therefore, the expression levels of different genes involved in the telomerase complex and the effect that cisplatin had on their expression were studied. To this end, the pLNCX and pLNCX 24.2 cells were pre-treated with 0.5 μg/ml and treated with 3 μg/ml of cisplatin for 3 and 7 days. Using oligos specific for hTR, hTERT and dyskerin, the expression levels of these genes and the effect of cisplatin on said expression were studied. […] This change in the sensitivity to cisplatin could explain, at least partially, the difference in sensitivity in the telomerase activity assays.
Expression of genes by RT-PCR. […]

hTR = assay: RT-PCR of hTR in VA13 cells; format: cell-based; conditions: transient transfection
Experimental: FIG. 10.—Telomerase activity and expression levels of hTERT and hTR in the cells of patients with dyskeratosis congenita and in VA13 cells transiently transfected with the 24.2 plasmid or the pLNCX empty vector. A) Telomerase activity measured by means of the TRAP assay in the cells of patients with dyskeratosis congenita (DC-1, DC-2 and DC-3) and in the carrier parent (DC-C) following electroporation of 45 μg of the pLNCX empty plasmid (−) or the pLNCX 24.2 vector (+) by 15 million cells. B) RT-PCR of the RNA from cells of one of the patients with dyskeratosis congenita, DC3 transfected with the empty vector and DC3 transfected with the 24.2 plasmid, using oligos specific for hTERT and hTR. As a starting RNA control, oligos for the amplification of GAPDH were used. C) Telomerase activity in VA13 cells. The cells were transiently transfected with 16 μg of the control pLNCX empty vector, expressing DKC or the GSE 24.2 peptide per million cells. 24 hours later, the telomerase activity was analysed as described above, using dilutions of the protein extracts from each transfection. D) The expression levels of hTERT and hTR in VA13 cells transfected with 16 μg of the different construct per million cells. RNA levels were detected as described above. GAPDH was used as a control. […] After 24 h of transfection, the luciferase activity was analyzed as described above. […]

B1: GSE 24.2: 165-pb cDNA fragment (nucleotides 268 to 433) of human dyskerin, SEQ ID NO1, encoding peptide SEQ ID NO2, expressed from pLNCX plasmid (nucleic acid, listed as Homo sapiens)
DNA: GGTTTCATTAATCTTGACAAGCCCTCTAACCCCTCTTCCCATGAGGTGGTAGCCTGGATTCGACGGATACTTCGGGTGGAGAAGACAGGGCACAGTGGTACTCTGGATCCCAAGGTGACTGGTTGTTTAATCGTGTGCATAGAACGAGCCACTCGCTTGGTGAAG
modifications: expressed from pLNCX plasmid; CDS (1)..(165) Sequence GSE 24.2
cell viability in response to Inhibitor of Telomerase I (293T cells): more resistant to the inhibitor of telomerase I
cell viability in response to Inhibitor of Telomerase I (293T cells; listed as 24.2): increases viability
hTERT expression after cisplatin in pLNCX 24.2 cells (hTERT): no reduction in expression in the pLNCX 24.2 cells until 7 days of treatment
expression of hTR RNA in VA13 cells (hTR): capable of recovering
